Results published in the supplement of paper PMC7125110.
± gives the standard error. This sample holds only a part of the variants without activity.

B1: glmS ribozyme (parent)
chain: AUAAAAGCGCCAGAACUACAGAAAUGUAGUUGACGAGGAGGAGGUUUAUCGAAUUUUCGGCGGAUGCCUCCAAA

How the values were obtained:
Conditions in all cases: with glucosamine-6-phosphate
glucosamine-6-phosphate [1] = variants of: B1; assay: self-cleavage kobs at 40 uM GlcN6P; higher = faster cleavage; RNA array
Method in brief: (§1)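 Tiles bearing barcoded ribozyme variants, transcribed in situ by E. coli RNA polymerase on sequenced MiSeq chips, were imaged over ~14 h at 37 °C using a hybridised Cy3 probe. Glucosamine-6-phosphate was supplied at 40 μM to 10 mM in HEPES/KCl/Mg(OAc)2 buffer. kobs came from one- or two-exponential decay fits to normalised per-tile medians, and weighted Michaelis–Menten fits then provided kcat and KM.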

glucosamine-6-phosphate [2] = variants of: B1; assay: self-cleavage kobs at 160 uM GlcN6P; higher = faster cleavage; RNA array
Method in brief: as §1

glucosamine-6-phosphate [3] = variants of: B1; assay: self-cleavage kobs at 10000 uM GlcN6P; higher = faster cleavage; RNA array
Method in brief: as §1

glucosamine-6-phosphate [4] = variants of: B1; assay: self-cleavage kobs at 640 uM GlcN6P; higher = faster cleavage; RNA array
Method in brief: as §1

glucosamine-6-phosphate [5] = variants of: B1; assay: self-cleavage kobs at 2500 uM GlcN6P; higher = faster cleavage; RNA array
Method in brief: as §1

Variant	self-cleavage kobs at 40 uM GlcN6P (glucosamine-6-phosphate [1])	self-cleavage kobs at 160 uM GlcN6P (glucosamine-6-phosphate [2])	self-cleavage kobs at 10000 uM GlcN6P (glucosamine-6-phosphate [3])	self-cleavage kobs at 640 uM GlcN6P (glucosamine-6-phosphate [4])	self-cleavage kobs at 2500 uM GlcN6P (glucosamine-6-phosphate [5])
G13A G63A	< 1e-05 s⁻¹	< 1e-05 s⁻¹	< 1e-05 s⁻¹		
G9A A42C	< 1e-05 s⁻¹	< 1e-05 s⁻¹		< 1e-05 s⁻¹	< 1e-05 s⁻¹
G40U A64U	< 1e-05 s⁻¹	< 1e-05 s⁻¹			
G7C A48U	< 1e-05 s⁻¹	< 1e-05 s⁻¹	< 1e-05 s⁻¹		< 1e-05 s⁻¹
A36U U49C	< 1e-05 s⁻¹	< 1e-05 s⁻¹	< 1e-05 s⁻¹	< 1e-05 s⁻¹	
U31C G51C	< 1e-05 s⁻¹		< 1e-05 s⁻¹		< 1e-05 s⁻¹
A6G A12G U31A U54A C71A	< 1e-05 s⁻¹	< 1e-05 s⁻¹		< 1e-05 s⁻¹	< 1e-05 s⁻¹
A33U A52C	< 1e-05 s⁻¹	< 1e-05 s⁻¹	< 1e-05 s⁻¹		
G44C A48C	< 1e-05 s⁻¹	< 1e-05 s⁻¹	< 1e-05 s⁻¹		< 1e-05 s⁻¹
A53U G59U	< 1e-05 s⁻¹		4.13e-05 ± 7.7e-06 s⁻¹		
U46A U57C	< 1e-05 s⁻¹				
G32U C58G G60U	< 1e-05 s⁻¹				
A36U U49G U65A	< 1e-05 s⁻¹				
C8A A52C	< 1e-05 s⁻¹	< 1e-05 s⁻¹	< 1e-05 s⁻¹	< 1e-05 s⁻¹	
C11G C68A	< 1e-05 s⁻¹				
U30G U47A	0.000162 ± 3.5e-05 s⁻¹		0.00566 ± 0.0013 s⁻¹		
U49C G59A C67G	< 1e-05 s⁻¹	< 1e-05 s⁻¹	< 1e-05 s⁻¹	< 1e-05 s⁻¹	
A12U A42G U47A C68U	0.000117 ± 4.6e-05 s⁻¹		0.00634 ± 0.0021 s⁻¹		
C8U G43A U56C	< 1e-05 s⁻¹		< 1e-05 s⁻¹		
A6U A33G G41A A64U	< 1e-05 s⁻¹	< 1e-05 s⁻¹		< 1e-05 s⁻¹	< 1e-05 s⁻¹
A14C G59C	< 1e-05 s⁻¹	< 1e-05 s⁻¹	< 1e-05 s⁻¹	< 1e-05 s⁻¹	
C10U U54A U57C	< 1e-05 s⁻¹				
C34G A53G U56G C67U	< 1e-05 s⁻¹				
G38U G40U	< 1e-05 s⁻¹		< 1e-05 s⁻¹		

Variant	self-cleavage kobs at 40 uM GlcN6P (glucosamine-6-phosphate [1])	self-cleavage kobs at 160 uM GlcN6P (glucosamine-6-phosphate [2])	self-cleavage kobs at 10000 uM GlcN6P (glucosamine-6-phosphate [3])	self-cleavage kobs at 640 uM GlcN6P (glucosamine-6-phosphate [4])	self-cleavage kobs at 2500 uM GlcN6P (glucosamine-6-phosphate [5])
A33U U56A U65A	< 1e-05 s⁻¹				
U45G A64U	< 1e-05 s⁻¹	< 1e-05 s⁻¹	9.64e-05 ± 1.8e-05 s⁻¹		
C8A U47G	< 1e-05 s⁻¹				
A14U U54A G59C	< 1e-05 s⁻¹		< 1e-05 s⁻¹		
U30C G43A U46A	< 1e-05 s⁻¹				
G44C U65C	< 1e-05 s⁻¹	< 1e-05 s⁻¹	< 1e-05 s⁻¹	< 1e-05 s⁻¹	
G40U G59U U69C C71U	< 1e-05 s⁻¹				< 1e-05 s⁻¹
U49C A52C	< 1e-05 s⁻¹	< 1e-05 s⁻¹	< 1e-05 s⁻¹		< 1e-05 s⁻¹
A6G A42C C71U	< 1e-05 s⁻¹			< 1e-05 s⁻¹	
C10A A48G U49G	< 1e-05 s⁻¹	< 1e-05 s⁻¹	< 1e-05 s⁻¹	< 1e-05 s⁻¹	< 1e-05 s⁻¹
G40C C68U	< 1e-05 s⁻¹		1.72e-05 ± 7.9e-06 s⁻¹		
U30G G60U	< 1e-05 s⁻¹		< 1e-05 s⁻¹	< 1e-05 s⁻¹	
A6G G35U A42G U46G G66U	< 1e-05 s⁻¹				
C67A C71U	7.16e-05 ± 5.5e-06 s⁻¹	0.000151 ± 1.3e-05 s⁻¹	0.00183 ± 0.00025 s⁻¹	0.000414 ± 4.1e-05 s⁻¹	0.000679 ± 7.6e-05 s⁻¹
G41U A42G G44A A48G	< 1e-05 s⁻¹			< 1e-05 s⁻¹	
C16U C71U	0.000761 ± 6.6e-05 s⁻¹	0.00136 ± 0.00015 s⁻¹	0.0301 ± 0.0059 s⁻¹	0.00431 ± 0.00077 s⁻¹	0.0356 ± 0.017 s⁻¹
G60C C67U	< 1e-05 s⁻¹		< 1e-05 s⁻¹		
U56A C67U	0.000175 ± 1.9e-05 s⁻¹	0.000452 ± 6.1e-05 s⁻¹	0.00679 ± 0.0012 s⁻¹	0.000938 ± 8.9e-05 s⁻¹	0.00474 ± 0.00085 s⁻¹
A6U G7U A36G U49C C58G	< 1e-05 s⁻¹		< 1e-05 s⁻¹	< 1e-05 s⁻¹	< 1e-05 s⁻¹
C11A A39C G62C A64U C67G	< 1e-05 s⁻¹				
C68U C70U C71U	< 1e-05 s⁻¹				
G35A U45C	< 1e-05 s⁻¹		< 1e-05 s⁻¹	< 1e-05 s⁻¹	< 1e-05 s⁻¹
G44C U45C	< 1e-05 s⁻¹	< 1e-05 s⁻¹			
C8A A12U A33C A39G A53C C68A	< 1e-05 s⁻¹				

Variant	self-cleavage kobs at 40 uM GlcN6P (glucosamine-6-phosphate [1])	self-cleavage kobs at 160 uM GlcN6P (glucosamine-6-phosphate [2])	self-cleavage kobs at 10000 uM GlcN6P (glucosamine-6-phosphate [3])	self-cleavage kobs at 640 uM GlcN6P (glucosamine-6-phosphate [4])	self-cleavage kobs at 2500 uM GlcN6P (glucosamine-6-phosphate [5])
A12U C50G	4.38e-05 ± 1.4e-05 s⁻¹	0.000613 ± 0.00026 s⁻¹	0.000147 ± 4.2e-05 s⁻¹		6.46e-05 ± 2.2e-05 s⁻¹
G37A G51C	< 1e-05 s⁻¹	< 1e-05 s⁻¹	< 1e-05 s⁻¹	< 1e-05 s⁻¹	< 1e-05 s⁻¹
A36C G44A	< 1e-05 s⁻¹	< 1e-05 s⁻¹	< 1e-05 s⁻¹	< 1e-05 s⁻¹	< 1e-05 s⁻¹
C34U G41A C50U C68U	< 1e-05 s⁻¹				< 1e-05 s⁻¹
G13U G43C	< 1e-05 s⁻¹	< 1e-05 s⁻¹	< 1e-05 s⁻¹	< 1e-05 s⁻¹	< 1e-05 s⁻¹
C34A U45G	< 1e-05 s⁻¹	< 1e-05 s⁻¹	< 1e-05 s⁻¹	< 1e-05 s⁻¹	< 1e-05 s⁻¹
G7U A36U G40C	< 1e-05 s⁻¹		< 1e-05 s⁻¹		< 1e-05 s⁻¹
C10G C68A	< 1e-05 s⁻¹				
A14G A33C C70U	< 1e-05 s⁻¹	< 1e-05 s⁻¹	< 1e-05 s⁻¹	< 1e-05 s⁻¹	< 1e-05 s⁻¹
G44C C71A	< 1e-05 s⁻¹	< 1e-05 s⁻¹		< 1e-05 s⁻¹	
C8A C10G	< 1e-05 s⁻¹	< 1e-05 s⁻¹	< 1e-05 s⁻¹	< 1e-05 s⁻¹	< 1e-05 s⁻¹
G29A U31C G35U G66A	< 1e-05 s⁻¹				
U57G G62A	< 1e-05 s⁻¹		< 1e-05 s⁻¹		
C10U G62A	< 1e-05 s⁻¹		< 1e-05 s⁻¹	< 1e-05 s⁻¹	
G32U U69G	7.55e-05 ± 1.7e-05 s⁻¹		9.29e-05 ± 1.7e-05 s⁻¹	0.000345 ± 8.4e-05 s⁻¹	
G7U U31C G59U	< 1e-05 s⁻¹				
G35U C50U C67G	0.000272 ± 0.0001 s⁻¹				
A52G U65A U69G C70U	5.09e-05 ± 1.9e-05 s⁻¹		3.34e-05 ± 1.4e-05 s⁻¹		
G29C C58U C71U	< 1e-05 s⁻¹		5.59e-05 ± 1.7e-05 s⁻¹		
U30A G41A G60A C70U	< 1e-05 s⁻¹				
A33U A48U	< 1e-05 s⁻¹	< 1e-05 s⁻¹	< 1e-05 s⁻¹	< 1e-05 s⁻¹	
C8A A42U G62U	< 1e-05 s⁻¹				< 1e-05 s⁻¹
G43U G44U	< 1e-05 s⁻¹	< 1e-05 s⁻¹	< 1e-05 s⁻¹	< 1e-05 s⁻¹	< 1e-05 s⁻¹
C10G C34U	< 1e-05 s⁻¹	< 1e-05 s⁻¹	< 1e-05 s⁻¹	< 1e-05 s⁻¹	< 1e-05 s⁻¹

Variant	self-cleavage kobs at 40 uM GlcN6P (glucosamine-6-phosphate [1])	self-cleavage kobs at 160 uM GlcN6P (glucosamine-6-phosphate [2])	self-cleavage kobs at 10000 uM GlcN6P (glucosamine-6-phosphate [3])	self-cleavage kobs at 640 uM GlcN6P (glucosamine-6-phosphate [4])	self-cleavage kobs at 2500 uM GlcN6P (glucosamine-6-phosphate [5])
A36U C61A C67U	5.22e-05 ± 2.3e-05 s⁻¹				
A48C G66C	< 1e-05 s⁻¹	< 1e-05 s⁻¹	3.05e-05 ± 1.2e-05 s⁻¹		
U30C G35A C50G C61U A64G	0.000165 ± 5.1e-05 s⁻¹				
G62C U65A	< 1e-05 s⁻¹				
G60U G63A C67U	< 1e-05 s⁻¹				
C10U A12U A33U A53G C58U U69G	9.07e-05 ± 2.5e-05 s⁻¹	0.000159 ± 3.3e-05 s⁻¹	6.22e-05 ± 1.8e-05 s⁻¹	0.000216 ± 5.1e-05 s⁻¹	0.000132 ± 4.1e-05 s⁻¹
G13A A42G A48U	< 1e-05 s⁻¹		< 1e-05 s⁻¹		
C11A G37C A39G G41A U47G	< 1e-05 s⁻¹		< 1e-05 s⁻¹		
C8A G60U	< 1e-05 s⁻¹	< 1e-05 s⁻¹		< 1e-05 s⁻¹	< 1e-05 s⁻¹
C34G U65C	< 1e-05 s⁻¹		< 1e-05 s⁻¹	< 1e-05 s⁻¹	
A12C C50U U54G	< 1e-05 s⁻¹				
G13A A48U	< 1e-05 s⁻¹	< 1e-05 s⁻¹		< 1e-05 s⁻¹	
G51A U65C	< 1e-05 s⁻¹		< 1e-05 s⁻¹		
G41U G43A	< 1e-05 s⁻¹		< 1e-05 s⁻¹	< 1e-05 s⁻¹	< 1e-05 s⁻¹
G7U G41U A48U	< 1e-05 s⁻¹				
U45C G60C	< 1e-05 s⁻¹	< 1e-05 s⁻¹	< 1e-05 s⁻¹	< 1e-05 s⁻¹	< 1e-05 s⁻¹
U69G	0.000371 ± 0.00012 s⁻¹	5.87e-05 ± 2.4e-06 s⁻¹	0.000467 ± 7.8e-05 s⁻¹	0.000488 ± 0.00012 s⁻¹	0.00011 ± 4.1e-05 s⁻¹
C8G A36C	< 1e-05 s⁻¹	< 1e-05 s⁻¹		< 1e-05 s⁻¹	< 1e-05 s⁻¹
A15U A36C U46G	< 1e-05 s⁻¹		< 1e-05 s⁻¹		
G7C C70A	< 1e-05 s⁻¹	< 1e-05 s⁻¹	< 1e-05 s⁻¹	< 1e-05 s⁻¹	< 1e-05 s⁻¹
A12G G62U	< 1e-05 s⁻¹			< 1e-05 s⁻¹	
